Reference: patent publication US20220125891

Test system: T1, FLAG-tagged Regnase-1 AA mutant (S435A/S439A) from Regnase-1-deficient MEFs
T1 sequence: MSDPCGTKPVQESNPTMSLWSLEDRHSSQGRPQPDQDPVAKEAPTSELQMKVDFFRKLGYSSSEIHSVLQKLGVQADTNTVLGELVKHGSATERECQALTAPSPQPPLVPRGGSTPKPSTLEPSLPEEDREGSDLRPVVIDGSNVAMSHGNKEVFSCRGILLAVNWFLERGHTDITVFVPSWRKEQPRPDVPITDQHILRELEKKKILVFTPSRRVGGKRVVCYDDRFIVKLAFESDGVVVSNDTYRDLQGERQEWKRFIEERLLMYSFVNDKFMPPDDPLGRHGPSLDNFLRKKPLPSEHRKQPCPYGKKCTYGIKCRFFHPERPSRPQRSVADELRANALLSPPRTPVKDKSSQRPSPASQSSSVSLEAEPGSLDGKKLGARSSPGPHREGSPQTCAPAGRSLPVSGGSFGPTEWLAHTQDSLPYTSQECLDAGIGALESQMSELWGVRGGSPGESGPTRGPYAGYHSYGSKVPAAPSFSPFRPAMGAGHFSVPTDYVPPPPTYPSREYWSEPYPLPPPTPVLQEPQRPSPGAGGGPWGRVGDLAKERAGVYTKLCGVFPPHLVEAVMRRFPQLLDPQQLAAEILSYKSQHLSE

| Substance | in vitro phosphorylation (mobility shift by immunoblotting, 32P autoradiography) |
| --- | --- |
| GST-tagged IKKi (Thermo Fisher Scientific) | Phosphorylation of recombinant Regnase-1 by recombinant TBK1 and/or IKKi under in vitro conditions was detected |
| GST-tagged TBK1 (Sigma) | Phosphorylation of recombinant Regnase-1 by recombinant TBK1 and/or IKKi under in vitro conditions was detected |
